Assay results reported in patent publication US7425449.

Columns and labels:
[1] = biological target: T1, U153 integrase (Listeria phage U153) (UniProt Q8LTD8); assay: cell_activity
T1 sequence: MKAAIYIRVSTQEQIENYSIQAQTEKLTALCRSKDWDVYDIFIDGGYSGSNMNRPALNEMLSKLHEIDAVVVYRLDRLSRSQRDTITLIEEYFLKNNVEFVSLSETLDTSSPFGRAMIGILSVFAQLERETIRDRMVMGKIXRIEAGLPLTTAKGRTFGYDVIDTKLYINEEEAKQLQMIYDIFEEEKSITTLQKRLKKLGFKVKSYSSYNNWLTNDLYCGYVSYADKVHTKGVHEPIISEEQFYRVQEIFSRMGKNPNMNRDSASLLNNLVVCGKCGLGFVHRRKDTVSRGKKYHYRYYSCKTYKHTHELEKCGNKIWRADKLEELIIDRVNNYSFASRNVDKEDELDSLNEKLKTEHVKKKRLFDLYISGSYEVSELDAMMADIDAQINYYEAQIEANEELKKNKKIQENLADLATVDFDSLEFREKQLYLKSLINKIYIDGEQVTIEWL

[2] = biological target: T2, PSA integrase (Listeria phage PSA) (UniProt Q8W5Y3); assay: cell_activity; settings: pPL2 in 10403S and EGDe; attB' side unrelated to 4b, attB side 96-97% identical
T2 sequence: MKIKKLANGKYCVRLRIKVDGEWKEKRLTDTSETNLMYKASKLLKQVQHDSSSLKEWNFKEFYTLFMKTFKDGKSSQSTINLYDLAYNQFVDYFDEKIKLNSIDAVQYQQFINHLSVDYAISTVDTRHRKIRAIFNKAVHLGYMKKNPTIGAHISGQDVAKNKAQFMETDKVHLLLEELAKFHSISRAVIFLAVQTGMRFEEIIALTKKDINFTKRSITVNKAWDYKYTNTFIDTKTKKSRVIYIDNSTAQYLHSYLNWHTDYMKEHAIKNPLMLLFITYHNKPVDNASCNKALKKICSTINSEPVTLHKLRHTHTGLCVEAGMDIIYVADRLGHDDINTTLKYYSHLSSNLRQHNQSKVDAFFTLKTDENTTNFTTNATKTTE

In the case of U153 attPP', the activity (integrants per donor cell) ([1]; attPP' partner on pPL1, stable for 100 generations) is reported as 0.0002.

With comK-attBB' the activity (integrants per donor cell) ([1]; pPL1 integration at comK in DP-L4056, similar frequency in SLCC-5764 and 4b strains, PCR confirmed) was 0.0002.

“tRNAArg-attBB' serotype 1/2 (10403S, EGDe)” gave an activity (integrants per donor cell) [2] of 0.0002.
